Measurements published in the supplement of paper PMC9170038.

Tested on: MS2 coat protein
Assay: apparent KD of MS2 coat protein; designed switch direction (-1 OFF switch, 1 ON switch): -1; higher = weaker reporter binding
Outline: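 SNAP-549-labelled MS2 coat protein was titrated, doubling from 0.7 or 1.5 nM to 3 µM, over designed RNA switches transcribed on Illumina chips by stalled E. coli RNA polymerase. Runs were done without input, with 200 uM small-molecule ligand, or with an oligonucleotide input. Apparent KD is the per-design median over clusters of curve-fitted normalised fluorescence.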

[1] = Eterna round: R95, input ligand: FMN 200 uM
[2] = Eterna round: R95, input ligand: microRNA oligo, concentration not stated
[3] = Eterna round: R95, input ligand: none
[4] = input ligand: microRNA oligo, concentration not stated

AAUAAUAAAGUCAGGAUAUCUAGAGCCUCGGCUCUAGAGAAGGGACAUGAGGAUCACCCAUGUCACUCAAUAAU [BmEx4/3-D2] (Eterna round: R97, puzzle: Brourd's mod of Exclusion 4)
apparent KD of MS2 coat protein (input ligand: FMN 200 uM): 20.2 nM | apparent KD of MS2 coat protein (input ligand: none): 17.7 nM

AAUAAUAAGGAGGAUAUCGUAUCCGAAAGGAUACGAGAAGGCCUAACAUGAGGAUCACCCAUGUUCCUCAAUAA [Mat - Exclusion 6 - Eli Mod - D54] (puzzle: Exclusion 6)
apparent KD of MS2 coat protein [1]: 773 nM | apparent KD of MS2 coat protein [2]: 264 nM | apparent KD of MS2 coat protein [3]: 267 nM

AAUACAAGCUAUUGAUCCCACAUGAGGAUCACCCAUGUAGAUGGCGGUGACACCUCCAUUACGAUAGCUCGUCUUAU [Sensor-V1 #57] (Eterna round: R97, puzzle: Sensor, turn-off variant 1)
apparent KD of MS2 coat protein (input ligand: FMN 200 uM): 321 nM | apparent KD of MS2 coat protein (input ligand: none): 347 nM

AAUACAAGCUAUUGAUCCCACAUGAGGAUCACCCAUGUGCCUGGCCGUGAGACAAGGUUUACAAUAGCUCGUCUUAU [Sensor-V1 #46] (Eterna round: R97, puzzle: Sensor, turn-off variant 1)
apparent KD of MS2 coat protein (input ligand: FMN 200 uM): 46.1 nM | apparent KD of MS2 coat protein (input ligand: none): 44.7 nM

AAUACAAGCUAUUGAUCCCACAUGAGGAUCACCCAUGUUCCUGGCCGUGAGGCUAGGUAAACAAUAGCUCGUCUUAU [Sensor-V1 #42] (Eterna round: R97, puzzle: Sensor, turn-off variant 1)
apparent KD of MS2 coat protein (input ligand: FMN 200 uM): 91.2 nM | apparent KD of MS2 coat protein (input ligand: none): 99.8 nM

AAUAGCAAGCAGAUCCUAAACAUGAGGAUCACCCAUGUGCUCGUCUUGUAAAGUACUAUCACGAAAGUGAUAGUACA [Sensor 3, v1 - 61] (puzzle: Sensor v3, turn-off variant 1)
apparent KD of MS2 coat protein [1]: 118 nM | apparent KD of MS2 coat protein [2]: 326 nM | apparent KD of MS2 coat protein [3]: 88.3 nM

AAUAGUCAAGUUAGGAUAUUGCACCAGUGAUGGACCAAGAAGGAACAUGAGGAUCACCCAUGUGAACUCACGAC [Eternabot (Original) Solution 3] (Eterna round: R97, puzzle: Brourd's mod of Exclusion 4)
apparent KD of MS2 coat protein (input ligand: FMN 200 uM): 344 nM | apparent KD of MS2 coat protein (input ligand: none): 40.8 nM

AAUAUACAUGUAGGAUAUCUGCACGAUUAGUGCAGAGAAGGACAUGAGGAUCACCCAUGUAAUUAAGAUCAAUUAUUAAAUAUU [ENG1/3-B1] (Eterna round: R96, puzzle: Exclusion NG 1)
apparent KD of MS2 coat protein (input ligand: FMN 200 uM): 327 nM | apparent KD of MS2 coat protein [4]: 46.9 nM | apparent KD of MS2 coat protein (input ligand: none): 46.6 nM

AAUAUGUGAGGAUAUGCUUUAAGAAGAAUGAGUUUGAAAUAACAUGAGGAUCACCCAUGUAGAAGGCGCUAAAA [Lollin - Beta 1] (puzzle: Exclusion 2)
apparent KD of MS2 coat protein [1]: 19.4 nM | apparent KD of MS2 coat protein [2]: 19.3 nM | apparent KD of MS2 coat protein [3]: 25.9 nM

AAUCCACAUGAGGAUCACCCAUGUCAGGAUAUCGCGCGCGCGUUUUCGGUCUUGCGCGCGAGAAGGGACGGCUG (puzzle: Exclusion 1)
apparent KD of MS2 coat protein [2]: 22.9 nM

AAUCCACAUGAGGAUCACCCAUGUCAGGAUAUCGUGUCGCGGGUUUCGGUCCGUGAUGCGAGAAGGGACGGCUG (puzzle: Exclusion 1)
apparent KD of MS2 coat protein [2]: 27.4 nM

AAUCCACAUGAGGAUCACCCAUGUUAGGAUAUCGCGGAGAUCGACUGCGGAAGUUCUGCGAGAAGGAGCGUGAU [Eternabot (L2) Solution 18] (Eterna round: R97, puzzle: Exclusion 1)
apparent KD of MS2 coat protein (input ligand: FMN 200 uM): 51.6 nM | apparent KD of MS2 coat protein (input ligand: none): 44 nM

AAUCCUGAAGUUAGGAUAUGAAGUAUCACUGCACUUCAGAAGGGACUUGAGGAUCACCCAAGUAGCCGUGAGGC [jl-bmx4.4.61 ViennaUCT mod] (Eterna round: R97, puzzle: Brourd's mod of Exclusion 4)
apparent KD of MS2 coat protein (input ligand: FMN 200 uM): 156 nM | apparent KD of MS2 coat protein (input ligand: none): 35.6 nM

AAUGAGCUAGGAUAUACAUGAGGAUCACCCAUGUAAAAUAGGUCAUGGAUGAACCACUGUAGAAGGAGCAGGGC [Ateseszave] (puzzle: Exclusion 3)
apparent KD of MS2 coat protein [1]: 95.6 nM | apparent KD of MS2 coat protein [2]: 146 nM | apparent KD of MS2 coat protein [3]: 105 nM

AAUGUCCAACGAGGAUAUGGGAAAGGAAGUGUACCAGAAGGCGUACGGACAUGAGGAUCACCCAUGUCGCGCGGCGCGAUGUGG [PowerStrip EXNG 1.14] (Eterna round: R96, puzzle: Exclusion NG 1)
apparent KD of MS2 coat protein (input ligand: FMN 200 uM): 80.9 nM | apparent KD of MS2 coat protein [4]: 46.4 nM | apparent KD of MS2 coat protein (input ligand: none): 52.7 nM

AAUGUUGUUGUGAGGAUAUCGUAGUUAUUUUGAAACGAGAAGGCACAUGAGGAUCACCCAUGUUUGUUGAUGGU [JR_BMOE4_Sub061] (puzzle: Brourd's mod of Exclusion 4)
apparent KD of MS2 coat protein [2]: 20.8 nM

AAUGUUUGAUACCUUUAAUACAUGAGGAUCACCCAUGUUAUCGAGGAUAUGUAGAAGAGAUGAGAACAGAAGGCGAAGUAAGAG [JR_ExcNG3_Sub097] (Eterna round: R96, puzzle: Exclusion NG 3)
apparent KD of MS2 coat protein (input ligand: FMN 200 uM): 29.5 nM | apparent KD of MS2 coat protein [4]: 10.5 nM | apparent KD of MS2 coat protein (input ligand: none): 15.1 nM

AAUGUUUGAUUCCACUUAUACAUGAGGAUCACCCAUGUUAUCGAGGAUAUGCAUUAGAGUGUUUAGCAGAAGGCGAUGUAAUUG [JR_ExcNG3_Sub034] (Eterna round: R96, puzzle: Exclusion NG 3)
apparent KD of MS2 coat protein (input ligand: FMN 200 uM): 90.2 nM | apparent KD of MS2 coat protein [4]: 13.1 nM | apparent KD of MS2 coat protein (input ligand: none): 13.8 nM

AAUUAAGCAAGCAGAUCCCACAUGAGGAUCACCCAUGUGCUCGUCUUAUAAGGUACUGUGACGAUAGUCACGGUACC [Mat - Sensor, turn-off var - Eli Mod - D71] (Eterna round: R97, puzzle: Sensor, turn-off variant 1)
apparent KD of MS2 coat protein (input ligand: FMN 200 uM): 135 nM | apparent KD of MS2 coat protein (input ligand: none): 140 nM

AAUUACAAGCAAAGAUCCUACAUGAGGAUCACCCAUGUGCUCGUCUUAUAAAGUACUAUCACGAAAGUGAUAGUACA [Mat - Sensor v3 - turn-off var 1 - Eli Mod - D76] (puzzle: Sensor v3, turn-off variant 1)
apparent KD of MS2 coat protein [1]: 222 nM | apparent KD of MS2 coat protein [2]: 13.5 nM | apparent KD of MS2 coat protein [3]: 232 nM

AAUUAGUGAGGAUAUUCGAGCAGUGGCAGUAGCCAGUGCAUGAAGAAGGCACAUGAGGAUCACCCAUGUUAUAA [EX4 #60] (Eterna round: R97, puzzle: Exclusion 4)
apparent KD of MS2 coat protein (input ligand: FMN 200 uM): 53.4 nM | apparent KD of MS2 coat protein (input ligand: none): 28.4 nM

AAUUAGUGUGUGAGGAUAUUGGUGGAAUGACUUAUUAAGAAGGCACAUGAGGAUCACCCAUGUGGGAAGUCACG [JR_BMEx4_Sub014] (Eterna round: R97, puzzle: Brourd's mod of Exclusion 4)
apparent KD of MS2 coat protein (input ligand: FMN 200 uM): 10.1 nM | apparent KD of MS2 coat protein (input ligand: none): 12 nM

AAUUAUUAUUGAGGAUAUCGUAUUGAAACAAUACGAGAAGGCGGUAUAAACAUGAGGAUCACCCAUGUGAGCCUGAUGCUUAUG [Ex NG1 #99] (Eterna round: R96, puzzle: Exclusion NG 1)
apparent KD of MS2 coat protein [4]: 27.5 nM

AAUUCCGUAGGAUAUGGGAACCGGGACAUGAGGAUCACCCAUGUGAAGGAUGUCCCAACACCAGAAGGACGCAGCA [EX5 A.14] (Eterna round: R97, puzzle: Exclusion 5)
apparent KD of MS2 coat protein (input ligand: FMN 200 uM): 47 nM | apparent KD of MS2 coat protein (input ligand: none): 25.9 nM

AAUUUGCAAGCGAGAUCCCACAUGAGGAUCACCCAUGUGCUCGUCUUAUAAGGUACUGUGACAAUAGUCACGGUACC [Mat - Sensor, turn-off var - Eli Mod - D94] (Eterna round: R97, puzzle: Sensor, turn-off variant 1)
apparent KD of MS2 coat protein (input ligand: FMN 200 uM): 16.7 nM | apparent KD of MS2 coat protein (input ligand: none): 20.8 nM

AAUUUUGGAGGAUAUACAUCCCAGGAUCCAGUAAUUAAGUUACAUGAGGAUCACCCAUGUAGAAGGUCAAGAGU [Eternabot (L1) Solution 75] (Eterna round: R97, puzzle: Exclusion 2)
apparent KD of MS2 coat protein (input ligand: FMN 200 uM): 53.3 nM | apparent KD of MS2 coat protein (input ligand: none): 44.4 nM

ACAACAAGCUUUUUGUUCGUAGAACAUGAUGCUCUAGUCACAUGAGGAUCACCCAUGUCAACUAGAUAGAUAGUUGA [JR_SV3TOV2_Sub062] (puzzle: Sensor v3, turn-off variant 2)
apparent KD of MS2 coat protein [1]: 43 nM | apparent KD of MS2 coat protein [2]: 95.7 nM | apparent KD of MS2 coat protein [3]: 44.1 nM

ACAAGCGAAAGGCUCGUCUUAUUUUUGUAGAGGUCCUAAACAUGAGGAUCACCCAUGUAGUGGCGAUGGUGGAGGUA [JR_SV3TOV2_Sub068] (puzzle: Sensor v3, turn-off variant 2)
apparent KD of MS2 coat protein [1]: 91.2 nM | apparent KD of MS2 coat protein [2]: 134 nM | apparent KD of MS2 coat protein [3]: 103 nM

ACAAGCUCUGUGGGUGGUGACAUGAGGAUCACCCAUGUUUUGCUCGUCUUGUGGGCCCGGGCCCGCGGCCCGGGCCC [-41.4, -70.3, A 12%] (Eterna round: R97, puzzle: Sensor, turn-off variant 1)
apparent KD of MS2 coat protein (input ligand: FMN 200 uM): 516 nM | apparent KD of MS2 coat protein (input ligand: none): 978 nM

ACAAGCUUAAUCAGUAUGAACAUGAGGAUCACCCAUGUAAAAGGGAAUACUAUUGGGUUUUUUAUAGCUCGUCUUAU [JR_STOV1_Sub018] (Eterna round: R97, puzzle: Sensor, turn-off variant 1)
apparent KD of MS2 coat protein (input ligand: FMN 200 uM): 17.8 nM | apparent KD of MS2 coat protein (input ligand: none): 21.7 nM
